Paper PMC10758103

Target: T1, p32 stably overexpressed from lentiviral pCDH-p32, Q07021
T1 chain: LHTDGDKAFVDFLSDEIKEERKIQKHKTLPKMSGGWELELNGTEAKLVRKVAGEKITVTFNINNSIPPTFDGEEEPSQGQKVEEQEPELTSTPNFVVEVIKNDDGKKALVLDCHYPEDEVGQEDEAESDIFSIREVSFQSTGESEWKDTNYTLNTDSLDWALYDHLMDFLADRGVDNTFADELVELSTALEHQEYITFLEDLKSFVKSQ
Experiment: cross-linking; 786-O-pCDH and 786-O-p32 cells treated with gradients of elesclomol and CuSO4; 0.1 mM disuccinimidyl suberate (DSS) on cells, 30 minutes at room temperature, quenched with 50 mM Tris; 8% SDS-PAGE and western blot
Settings: remark: other sources report otherwise

B1: p32 stably overexpressed from lentiviral pCDH-p32, Q07021 74-282 (natural protein)
chain: LHTDGDKAFVDFLSDEIKEERKIQKHKTLPKMSGGWELELNGTEAKLVRKVAGEKITVTFNINNSIPPTFDGEEEPSQGQKVEEQEPELTSTPNFVVEVIKNDDGKKALVLDCHYPEDEVGQEDEAESDIFSIREVSFQSTGESEWKDTNYTLNTDSLDWALYDHLMDFLADRGVDNTFADELVELSTALEHQEYITFLEDLKSFVKSQ
In the case of B1, the stoichiometry N is reported as 2.
